Laboratory results published in article PMC3192257 (Molecular microbiology, 2011).

B1: 6His-Hag fusion protein (flagellin) (natural protein)
chain: not shown
B2: FliW (natural protein, Bacillus subtilis (strain 3610), UniProt P96503 1-143, looked up)
chain: MIIHTKYHGQMNIKEEQIILFESGIPGFLEEKQFVILPLSEDSPFVALQSVTSENLAFIVVSPFIFFKNYEFDLDESTAELLDIDNIQDVEVMTILTMAEPFEKSTANLLAPIIVNRKNMMAKQVVLHDSSYTTKHPIGGESC

What was measured:
[1] = biological target: B2; assay: ITC
[2] = biological target: B1; assay: ITC

Kd [1] [nM]	dH [1] [kcal/mol]	stoichiometry N [1]	Kd [2] [nM]	Binder
20	-15.4	0.46	–	His-CsrA (CsrA containing six His residues at the C-terminus) (natural protein, Bacillus subtilis, UniProt P33911 1-74, looked up) MLVLSRKINEAIQIGADIEVKVIAVEGDQVKLGIDAPKHIDIHRKEIYLTIQEENNRAAALSSDVISALSSQKK
–	-22	1.29	–	B1
–	–	–	140	B2
